Assay results taken from patent US20250019457A1 (IBIO, published 2025).
Changes are numbered by the printed parent chain.

T1: human TROP2 (purified recombinant antigen, Acro Biosystems Cat #TR2-H5223) (human, UniProt P09758 27-274)
T1 construct: Bought recombinant protein; also called huTROP2
T1 sequence: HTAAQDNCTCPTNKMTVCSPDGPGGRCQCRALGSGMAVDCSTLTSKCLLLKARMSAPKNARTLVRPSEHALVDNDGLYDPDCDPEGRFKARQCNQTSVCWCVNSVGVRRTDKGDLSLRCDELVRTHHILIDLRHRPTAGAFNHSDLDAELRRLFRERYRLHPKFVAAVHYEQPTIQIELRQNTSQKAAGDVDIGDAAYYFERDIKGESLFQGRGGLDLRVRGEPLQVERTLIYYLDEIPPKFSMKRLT

T2: cynomolgus/rhesus TROP2 (purified recombinant antigen, Acro Biosystems Cat #TR2-R52H3) (cynomolgus/rhesus, UniProt P09758 27-274 (human entry))
T2 construct: Bought recombinant protein; also called cyTROP2; cyno/rhesus TROP2
T2 chain: T1 sequence with M36V, S67N, I204V

T3: mouse TROP2 (purified recombinant antigen, Acro Biosystems Cat #TR2-M52H6) (mouse, UniProt Q8BGV3 25-270)
T3 construct: Bought recombinant protein; also called msTROP2
T3 sequence: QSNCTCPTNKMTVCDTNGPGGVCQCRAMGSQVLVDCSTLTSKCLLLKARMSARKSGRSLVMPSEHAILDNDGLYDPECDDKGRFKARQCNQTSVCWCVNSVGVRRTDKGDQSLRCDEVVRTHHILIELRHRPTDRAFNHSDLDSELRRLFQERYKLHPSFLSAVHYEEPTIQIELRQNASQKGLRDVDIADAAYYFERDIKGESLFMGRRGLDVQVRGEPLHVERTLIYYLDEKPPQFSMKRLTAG

T4: human Trop2 on cells (FaDu cells, endogenous; ExpiCHO cells overexpressing human Trop2) (human, UniProt P09758 27-323)
T4 construct: Cell-surface form
T4 sequence: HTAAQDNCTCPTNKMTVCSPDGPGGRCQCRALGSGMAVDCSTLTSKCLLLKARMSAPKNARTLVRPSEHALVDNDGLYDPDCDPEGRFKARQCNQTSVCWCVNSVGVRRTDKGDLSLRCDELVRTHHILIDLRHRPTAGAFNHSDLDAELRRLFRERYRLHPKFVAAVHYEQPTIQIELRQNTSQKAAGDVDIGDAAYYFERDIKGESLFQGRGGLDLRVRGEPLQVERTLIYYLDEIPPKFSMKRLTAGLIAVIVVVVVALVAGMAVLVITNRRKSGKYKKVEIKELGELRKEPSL

T5: human EpCAM (purified recombinant antigen, Acro Biosystems Cat #EPM-H5223) (human, UniProt P16422 24-265)
T5 construct: Bought recombinant protein
T5 sequence: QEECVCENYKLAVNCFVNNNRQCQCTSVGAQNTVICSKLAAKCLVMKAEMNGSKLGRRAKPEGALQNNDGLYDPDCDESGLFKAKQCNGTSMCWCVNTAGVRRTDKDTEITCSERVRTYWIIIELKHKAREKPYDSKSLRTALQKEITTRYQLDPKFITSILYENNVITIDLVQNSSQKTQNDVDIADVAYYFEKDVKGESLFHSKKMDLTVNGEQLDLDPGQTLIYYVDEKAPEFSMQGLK

B1: 589-VH_5 + 589-VL_1 (antibody, V domains shown)
VH: AVTLDESGGGLQTPGGGLSLVCKASGFDFIDYDMFWVRQAPGKGLEWVGVINRSGSYTNYAPAVKGRATISRDNGQSTMRLQLNNLRAEDTGTYYCARGACTHCWDADSAGYIDAWGHGTEVIVSS
VL: SYELTQPPSVSVSPGQTASITCSGSSGSYGWYQQKPGQSPVLVIYSSDKRPSGIPERFSGSNSGNTATLTISGTQAMDEADYYCGGYDGSTDVGIFGGGTKLTVL
notes: parental VH with humanized VL
B2: 589-VH_5 + 589-VL_2 (antibody, V domains shown)
VH: B1 VH
VL: B1 VL with Y2L, Y32H, L42T, N62S, N65S
notes: parental VH with humanized VL
B3: 589-VH_2 + 589-VL_1 (antibody, V domains shown)
VH: QVQLLESGGGLVKPGGSLRLSCAASGFDFIDYDMFWIRQAPGKGLEWVGVINRSGSYTNYAPAVKGRATISRDNAKNSMYLQMNSLRAEDTAVYYCARGACTHCWDADSAGYIDAWGQGTLVTVSS
VL: B1 VL
B4: 589-VH_2 + 589-VL_4 (antibody, V domains shown)
VH: B3 VH
VL: ALALTQPSSVSANPGGTVKITCSGSSGSYGWHQQKSPGSAPVTVIYSSDKRPSDIPSRFSGALSGSTATLTITGVRAEDEAVYYCGGYDGSTDVGIFGAGTTLTVL
B5: 589-VH_3 + 589-VL_4 (antibody, V domains shown)
VH: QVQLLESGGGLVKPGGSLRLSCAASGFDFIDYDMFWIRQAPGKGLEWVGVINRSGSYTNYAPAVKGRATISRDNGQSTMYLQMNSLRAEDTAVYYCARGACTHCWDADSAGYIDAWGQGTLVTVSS
VL: B4 VL
B6: 589-VH_1 + 589-VL_1 (antibody, V domains shown)
VH: B3 VH with D28T, I30S, G49S, A68F, M79L
VL: B1 VL
B7: 589-VH_2 + 589-VL_2 (antibody, V domains shown)
VH: B3 VH
VL: B1 VL with Y2L, Y32H, L42T, N62S, N65S
notes: also called SD-861408
B8: 589-VH_1 + 589-VL_2 (antibody, V domains shown)
VH: B3 VH with D28T, I30S, G49S, A68F, M79L
VL: B1 VL with Y2L, Y32H, L42T, N62S, N65S
B9: 589-VH_1 + 589-VL_4 (antibody, V domains shown)
VH: B3 VH with D28T, I30S, G49S, A68F, M79L
VL: B4 VL
B10: 589-VH_3 + 589-VL_2 (antibody, V domains shown)
VH: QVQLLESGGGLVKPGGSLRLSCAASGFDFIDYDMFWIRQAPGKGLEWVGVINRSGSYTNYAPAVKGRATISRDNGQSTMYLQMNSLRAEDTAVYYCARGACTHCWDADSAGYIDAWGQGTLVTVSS
VL: B1 VL with Y2L, Y32H, L42T, N62S, N65S
B11: 589-VH_3 + 589-VL_1 (antibody, V domains shown)
VH: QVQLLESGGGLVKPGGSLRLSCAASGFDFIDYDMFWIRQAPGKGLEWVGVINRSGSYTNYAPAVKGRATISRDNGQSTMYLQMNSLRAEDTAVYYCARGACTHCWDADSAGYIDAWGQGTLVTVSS
VL: B1 VL
B12: SD-970200 (antibody, V domains shown)
VH: AVTLDESGGGLQTPGGALSLVCKGSGFTFSSYAMGWVRQAPGKGLEYVAAISSGSSTGYGAAVKGRATISKDTGQSTVRLQLNNLRAEDTATYYCAKSGYGGSASYVSDIDAWGHGTEVIVSS
VL: ALALTQPSSVSANPGETVEITCSGGGDYYGTYYYGWYQQKAPGSAPVTVIYDNTKRPSNIPSRFSGSTSGSTNTLTITGVQADDEAVYYCGSYDSSAGIFGAGTTLTVL
notes: Chicken/human chimera
B13: RS7 (antibody, V domains shown)
VH: QVQLQQSGSELKKPGASVKVSCKASGYTFTNYGMNWVKQAPGQGLKWMGWINTYTGEPTYTDDFKGRFAFSLDTSVSTAYLQISSLKADDTAVYFCARGGFGSSYWYFDVWGQGSLVTVSS
VL: DIQLTQSPSSLSASVGDRVSITCKASQDVSIAVAWYQQKPGKAPKLLIYSASYRYTGVPDRFSGSGSGTDFTLTISSLQPEDFAVYYCQQHYITPLTFGAGTKVEIKR
B14: SD-685208 (antibody, V domains shown)
VH: B1 VH with G17A
VL: ALALTQPSSVSANPGETVKITCSGSSGSYGWFQQKSPGSAPVTVIYWNDKRPSDIPSRFSGSTSGSTGTLTITGVQADDEAVYFCGNADSSGTFGAGTTLTVL
notes: Chicken/human chimera
B15: SD-394517 (antibody, V domains shown)
VH: B12 VH with K71R
VL: B12 VL
notes: Chicken/human chimera
B16: SD-457798 (antibody, V domains shown)
VH: B12 VH
VL: ALALTQPSSVSANPGETVEITCSGGGDYYGTYYYGWYQQKAPGSAPVTVIYDNTKRPSNIPSRFSGSTSGSTNTLTITGVQADDEAIYFCGSYKSNTFGAGTTLTVL
notes: Chicken/human chimera

Each binder was assayed against T1, human TROP2 (purified recombinant …) (assay: SPR (Carterra LSA), antibody captured through human Fc, huTROP2 as analyte; KD plotted for each VH/VL combination).

Binder | binding result
B1 | binds
B2 | binds
B3 | binds
B4 | binds
B5 | binds
B6 | binds
B7 | binds
B8 | binds
B9 | binds
B10 | binds
B11 | binds

These binders were tested against T1, human TROP2 (purified recombinant …) (assay: MSD assay: biotinylated TROP2 on streptavidin plate, antibody titrated, anti-human SULFO-TAG detection).

Binder | EC50 (read off the curve) [nM]
B12 | ~0.2
B13 | ~0.3
B14 | ~0.08

Molecular target: T2, cynomolgus/rhesus TROP2 (purified …)
Assay: SPR, Carterra LSA; antibody captured on anti-human IgG, antigen injected; 1:1 fit

Binder | Kd [nM]
B15 | 0.92
B16 | 0.96
B12 | 0.29
B13 | 2.05
B14 | 6.08

Each binder was assayed against T3, mouse TROP2 (purified recombinant …) in the same assay as above.

Binder | Kd [nM]
B15 | 1.18
B16 | 0.34
B12 | 0.63
B14 | 11.4

These binders were tested against T1, human TROP2 (purified recombinant …) in the same assay as above.

Binder | Kd [nM]
B15 | 0.76
B16 | 0.64
B12 | 0.21
B13 | 1.81
B14 | 3.81

What follows are binders tested against T4, human Trop2 on cells (FaDu cells, …) (assay: flow cytometry on ExpiCHO cells overexpressing human Trop2, percent of cells bound).

Binder | EC50 (read off the curve) [nM]
B12 | ~0.05
B13 | ~0.03

The binders below were run against T5, human EpCAM (purified recombinant …) (assay: SPR, Carterra LSA; antibody captured on anti-human IgG, antigen injected).

Binder | binding result
B15 | no binding (tested: 1 µM top concentration)
B16 | no binding (tested: 1 µM top concentration)
B12 | no binding (tested: 1 µM top concentration)
B14 | no binding (tested: 1 µM top concentration)

These binders were tested against T4, human Trop2 on cells (FaDu cells, …) (assay: flow cytometry on FaDu cells (endogenous human Trop2); average of n=1-3 experiments).

Binder | EC50 [nM]
B15 | 2.04
B16 | 1.06
B12 | 1.53
B13 | 2
B14 | 0.513

Each binder was assayed against T3, mouse TROP2 (purified recombinant …) (assay: SPR, Carterra LSA; ratio of KD values, reference huTROP2).

Binder | Fold difference in affinity (huTROP2:msTROP2) [fold]
B15 | 1.5
B16 | 0.5
B12 | 3
B14 | 3

Molecular target: T1, human TROP2 (purified recombinant …)
Assay: SPR, Carterra LSA; antibody captured on anti-human IgG, antigen injected; 1:1 fit
Remark: another data set of the same source

Binder | Kd [nM] | koff [s⁻¹] | kon [M⁻¹ s⁻¹]
B15 | 0.76 | 0.000303 | 396000
B16 | 0.64 | 0.000259 | 403000
B12 | 0.21 | 0.000114 | 555000
B13 | 1.81 | 0.000201 | 111000
B14 | 3.81 | 0.000898 | 235000
